Results published in PMC11344481 (Journal of proteome research, 2024).

Assays:
[1] = target: malate dehydrogenase (human (endogenous in heart tissue)) (UniProt P40925); test: native MS
native MS = target: the molecule itself; test: native MS

In the case of “malate dehydrogenase (from UniProt P40925 1-334) (enzyme)”, the stoichiometry N [1] is reported as 2.

B1: S100-A1 (natural protein, human (endogenous in heart tissue), UniProt P23297 2-94, looked up)
chain: GSELETAMETLINVFHAHSGKEGDKYKLSKKELKELLQTELSGFLDAQKDVDAVDKVMKELDENGDGEVDFQEYVVLVAALTVACNNFFWENS
modifications: N-terminal methionine removed and N-terminus acetylated (primary proteoform)
With B1 the “stoichiometry N” value (native MS) was 2.
